Molecular target: nsp12;nsp7;nsp8 (SARS-CoV-2;SARS-CoV-2;SARS-CoV-2, UniProt P0DTD1;P0DTD1;P0DTD1 4393-5324;3860-3942;3943-4140, ||)
Assay: size exclusion chromatography; 20 mM Na-HEPES pH 7.4, 100 mM NaCl, 1 mM MgCl2, 1 mM TCEP; NMR: 50 mM NaP, 0.01% NaN3, 5% D2O, 5 C; phase separation: 20 mM NaPi pH 7.5
Settings: protein: recombinant;recombinant;recombinant; tags: 6xHis-MBP removed by TEV;His tag removed by TEV;His tag removed by TEV; copies: 1;1;2; label: 5' 6-FAM on strand 2; 5' overhang 11 nt on strand 1; other end blunt

B1: RdRp RNA scaffold (minimal RNA hairpin) (dsRNA)
RNA 1: UUUUCAUGCAUCGCGUAGGCUCAUACCGUAUUGAGA
RNA 2: UCUCAAUACGGUAUGAGCCUACGCG
- binding result: binds

Reference: PMC7699647, “Nucleocapsid protein of SARS-CoV-2 phase separates into RNA-rich polymerase-containing condensates”
